{"source": "patent US20250368714A1", "about": "“TREATMENT OF CANCER” (Immutep S.A.S., priority 2022, published 2025)", "molecules": {"B1": {"name": "IMP321: recombinant soluble human LAG-3Ig fusion protein, 160-kDa dimer: extracellular domain of hLAG-3 fused to human IgG1 Fc; APC activator (protein)", "chain": "LQPGAEVPVVWAQEGAPAQLPCSPTIPLQDLSLLRRAGVTWQHQPDSGPPAAAPGHPLAPGPHPAAPSSWGPRPRRYTVLSVGPGGLRSGRLPLQPRVQLDERGRQRGDFSLWLRPARRADAGEYRAAVHLRDRALSCRLRLRLGQASMTASPPGSLRASDWVILNCSFSRPDRPASVHWFRNRGQGRVPVRESPHHHLAESFLFLPQVSPMDSGPWGCILTYRDGFNVSIMYNLTVLGLEPPTPLTVYAGAGSRVGLPCRLPAGVGTRSFLTAKWTPPGGGPDLLVTGDNGDFTLRLEDVSQAQAGTYTCHIHLQEQQLNATVTLAIITVTPKSFGSPGSLGKLLCEVTPVSGQERFVWSSLDTPSQRSFSGPWLEAQEAQLLSQPWQCQLYQGERLLGAAVYFTELSSPG", "modifications": "left off: small tags and cut ends; a dimerising Fc or GST"}}, "key": {"[1]": {"tested_on": "Blood cell subsets (CD4, CD8, PBMCs, monocytes) and Th1 biomarker (CXCL-10)", "assay": "AIPAC immuno-monitoring of blood cell subsets, Th1 biomarker and absolute lymphocyte count", "assay_type": "in vivo, human", "method": "Immuno-monitoring was also conducted. Blood cell subsets (CD4, CD8, PBMCs, monocytes) and Th1 biomarker (CXCL-10) were measured centrally. Comparison was done using 2-sided Wilcoxon test.\n(§1) On the other hand, pre-study levels of CD8+ T cells were not correlated with OS in either treatment arm. Efti increases secondary target cells (CD8+ T cells) in the peripheral blood, leading to improved OS.\nIncrease of ALC is linked to improved survival for patients treated with efti arm, but not for patients in the placebo arm (FIG. 9). […] As this increase is observed early, it could be used in the future as a potential early on study biomarker for treatment continuation."}, "[2]": {"tested_on": "CD4+ and CD8+ T cells numbers and activation status, IFN-γ and CXCL10", "assay": "PD markers of T cell immune response in patients dosed with efti every 2 weeks", "assay_type": "in vivo, human"}, "[3]": {"assay": "Nonclinical toxicity study", "assay_type": "in vivo"}, "[4]": {"tested_on": "primary and secondary immune cells", "assay": "PD effects in vitro and ex vivo: activation of immune cells, induction of cytokines", "assay_type": "cell-based"}, "[5]": {"assay": "Clinical pharmacokinetics of s.c. efti in cancer patients", "assay_type": "in vivo, human", "settings": "for Cavg24h: cancer patients", "method": "as §1\nEfti doses of 6 and 30 mg given clinically lead to plasma Cmax of ≥1 ng/ml in most patients, this concentration reflecting the minimum concentration for desired efti PD effects. However, systemic efti levels of >1 ng/ml and lasting for ≥24 h have been observed in about 90% of patients receiving efti 30 mg, compared to only 20% at 6 mg."}, "[6]": {"assay": "Pharmacokinetics of s.c. IMP321 in metastatic renal cell cancer patients", "assay_type": "in vivo, human", "settings": "for at least 24 hours after s.c. injection; doses of more than 6 mg"}, "[7]": {"tested_on": "HER2 negative hormone receptor-positive metastatic breast cancer patients", "assay": "AIPAC Phase IIb study: paclitaxel+IMP321 vs paclitaxel+placebo, overall survival", "assay_type": "in vivo, human", "method": "A multicentre, placebo-controlled, double-blind, 1:1 randomised Phase IIb study in female HER2 negative hormone receptor-positive metastatic breast cancer patients was conducted. The study comprised two stages: • stage 1 which was an open-label, safety run-in stage consisting of cohorts 1 and 2 to confirm the recommended Phase II dose (RPTD) of IMP321 in combination with paclitaxel; and • stage 2 which was a placebo-controlled, double-blind randomisation stage, paclitaxel+IMP321 at the RPTD compared to paclitaxel+placebo.\nThe chemo-immunotherapy phase consisted of 6 cycles of 4 weeks. Patients received weekly paclitaxel at Days 1, 8 and 15 with adjunctive treatment of study agent (IMP321) on Days 2 and 16 of each 4-week cycle. After completion of the 6-cycle chemo-immunotherapy phase, responding or stable patients received study agent (IMP321) every 4 weeks during the maintenance phase for an additional period of up to 12 injections.\nThe chemo-immunotherapy phase consisted of 6 cycles of 4 weeks. Patients received weekly paclitaxel at Days 1, 8 and 15 with adjunctive treatment of study agent (placebo) on Days 2 and 16 of each 4-week cycle.\nAfter completion of the 6-cycle chemo-immunotherapy phase, responding or stable patients received study agent (placebo) every 4 weeks during the maintenance phase for an additional period of up to 12 injections.\nIn addition, multivariate analysis was done using backward selection (p>0.15) from the univariate cox model."}, "[8]": {"settings": "human, in vivo"}, "[9]": {"assay": "Clinical safety and tolerability of IMP321 (efti)"}, "[10]": {"settings": "Overall population, paclitaxel+IMP321 30 mg vs paclitaxel+placebo, univariate analysis, p 0.197"}, "[11]": {"settings": "Sub-group <5 years since diagnosis, multivariate analysis table, p 0.025"}, "[12]": {"settings": "Sub-group <65 years, univariate analysis, p 0.017"}, "[13]": {"settings": "Sub-group Luminal B, univariate analysis, p 0.049"}, "[14]": {"settings": "Sub-group high (>3.65) NLR at baseline, multivariate analysis table, p 0.012"}, "[15]": {"settings": "Sub-group low baseline monocytes (<0.25/nL), univariate analysis, p 0.008"}, "[16]": {"settings": "Sub-group low baseline monocytes, multivariate analysis table, p 0.008"}, "[17]": {"settings": "Sub-group no prior taxane therapy, multivariate analysis table, p 0.076"}, "[18]": {"settings": "Sub-group no prior taxane therapy, univariate analysis, p 0.076"}, "[19]": {"settings": "8 treatment emergent adverse events in 3 of 5 patients with Cmax >10 ng/ml"}}, "data": [{"molecule": "B1", "values": [{"measurement": "On treatment fold-change of PBMCs", "setting": "[1]; IMP321 group vs placebo 1.41, p=0.041", "result": 2.00, "unit": "fold"}, {"measurement": "On treatment fold-change of T cells", "setting": "[1]; IMP321 group vs placebo 1.48, p=0.086", "result": 2.28, "unit": "fold"}, {"measurement": "On treatment fold-change of CXCL10", "setting": "[1]; IMP321 group vs placebo 1.56, p=0.06", "result": 2.78, "unit": "fold"}, {"measurement": "On treatment fold-change of monocytes", "setting": "[1]; IMP321 group vs placebo 2.29, p=0.025", "result": 5.81, "unit": "fold"}, {"measurement": "absolute lymphocyte count increase", "setting": "[1]; efti arm, early (after 4 weeks) and sustainable", "result": "≥ 0.2", "unit": "nL⁻¹"}, {"measurement": "circulating CD8+ T cells", "setting": "[1]; efti arm, fresh whole blood by FACS (n=75), samples 2 weeks after previous efti dose, not in placebo arm", "result": "sustainable, statistically significant increase"}, {"measurement": "Post baseline CD8 T cells count (median)", "setting": "[1]; patients with improved OS, IMP321 group vs placebo 223, p=0.005", "result": 377, "unit": "µL⁻¹"}, {"measurement": "Post baseline CD4 T cells count (median)", "setting": "[1]; patients with improved OS, IMP321 group vs placebo 736, p=0.038", "result": 896, "unit": "µL⁻¹"}, {"measurement": "proportion of patients with upregulation of at least one PD marker (1.4-fold increase compared to baseline)", "setting": "[2]; 1 mg", "result": "about 50%"}, {"measurement": "proportion of patients with upregulation of at least one PD marker (1.4-fold increase compared to baseline)", "setting": "[2]; 30 mg", "result": "about 90%"}, {"measurement": "NOAEL dose", "setting": "[3]", "result": 15, "unit": "mg/kg"}, {"measurement": "efti concentration at which desired PD effects start", "setting": "[4]", "result": "1 to 10", "unit": "ng/mL"}, {"measurement": "patients with systemic efti levels of >1 ng/ml lasting for ≥24 h", "setting": "[5]; 6 mg", "result": 20, "unit": "%"}, {"measurement": "Cavg24h", "setting": "[5]; 6 mg", "result": 0.8, "unit": "ng/mL"}, {"measurement": "patients with systemic efti levels of >1 ng/ml lasting for ≥24 h", "setting": "[5]; 30 mg", "result": "about 90%"}, {"measurement": "Cavg24h", "setting": "[5]; 30 mg s.c.", "result": 3.3, "unit": "ng/mL"}, {"measurement": "plasma Cmax", "setting": "[5]; doses of 6 and 30 mg, in most patients", "result": "≥ 1", "unit": "ng/mL"}, {"measurement": "time until efti disappears from the bloodstream after injection", "setting": "[5]; s.c. injection", "result": "3 to 4", "unit": "days"}, {"measurement": "blood concentration of IMP321", "setting": "[6]", "result": "> 1", "unit": "ng/mL"}, {"measurement": "Absolute gain in median OS", "setting": "[7]; [10]", "result": "+2.9 months"}, {"measurement": "Hazard Ratio [95% CI] (OS)", "setting": "[7]; [10]", "result": 0.88}, {"measurement": "Absolute gain in median OS", "setting": "[7]; [11]", "result": "+4.8 months"}, {"measurement": "Hazard Ratio [95% CI] (OS)", "setting": "[7]; [11]", "result": 0.62}, {"measurement": "Absolute gain in median OS", "setting": "[7]; [12]", "result": "+7.5 months"}, {"measurement": "Hazard Ratio [95% CI] (OS)", "setting": "[7]; [12]", "result": 0.66}, {"measurement": "Absolute gain in median OS", "setting": "[7]; [13]", "result": "+4.2 months"}, {"measurement": "Hazard Ratio [95% CI] (OS)", "setting": "[7]; [13]", "result": 0.67}, {"measurement": "Absolute gain in median OS", "setting": "[7]; [14]", "result": "+6.9 months"}, {"measurement": "Hazard Ratio [95% CI] (OS)", "setting": "[7]; [14]", "result": 0.61}, {"measurement": "Absolute gain in median OS", "setting": "[7]; [15]", "result": "+19.6 months"}, {"measurement": "Hazard Ratio [95% CI] (OS)", "setting": "[7]; [15]", "result": 0.44}, {"measurement": "Absolute gain in median OS", "setting": "[7]; [16]", "result": "+19.6 months"}, {"measurement": "Hazard Ratio [95% CI] (OS)", "setting": "[7]; [16]", "result": 0.44}, {"measurement": "Absolute gain in median OS", "setting": "[7]; [17]", "result": "+4.8 months"}, {"measurement": "Hazard Ratio [95% CI] (OS)", "setting": "[7]; [17]", "result": 0.74}, {"measurement": "Absolute gain in median OS", "setting": "[7]; [18]", "result": "+4.8 months"}, {"measurement": "Hazard Ratio [95% CI] (OS)", "setting": "[7]; [18]", "result": 0.74}, {"measurement": "improvement in median overall survival (OS)", "setting": "[7]; young patients (<65 years), low baseline monocytes (<0.25/nL), or Luminal B, exploratory univariate analysis", "result": "significant and clinically meaningful improvement"}, {"measurement": "safety and tolerability of dose", "setting": "[8]", "result": "safe and tolerable"}, {"measurement": "safety of s.c. doses", "setting": "[8]; sc", "result": "safe"}, {"measurement": "grade ≥3 adverse events related to efti", "setting": "[9]; 5 patients with Cmax of >10 ng/ml at dose 1", "result": "no grade ≥3 adverse events related to efti"}, {"measurement": "adverse reactions mild in severity", "setting": "[9]; [19]", "result": 62.5, "unit": "%"}, {"measurement": "adverse reactions moderate in severity", "setting": "[9]; [19]", "result": 37.5, "unit": "%"}, {"measurement": "dose limiting toxicity", "setting": "[9]; observed to date", "result": "No dose limiting toxicity"}]}]}
